Experimental data reported in paper PMC5312616, “A Cholecystokinin B Receptor-Specific DNA Aptamer for Targeting Pancreatic Ductal Adenocarcinoma”.
Read-outs that look alike come from different tables or passages of the source.

Tests used:
[1] = target: CCKBR (Homo sapiens) (UniProt P32239); conditions: cited from earlier work
[2] = target: T1, CCKBR N-terminal peptide BR5-21 (human, UniProt P32239 5-21); assay: not stated in material; Kd assay buffer and method not given in material; SELEX peptide-bead incubation 60 min at 37 C
T1 chain: KLNRSVQGTGPGPGASL

Chain of CCKBR (Homo sapiens) (P32239 whole entry): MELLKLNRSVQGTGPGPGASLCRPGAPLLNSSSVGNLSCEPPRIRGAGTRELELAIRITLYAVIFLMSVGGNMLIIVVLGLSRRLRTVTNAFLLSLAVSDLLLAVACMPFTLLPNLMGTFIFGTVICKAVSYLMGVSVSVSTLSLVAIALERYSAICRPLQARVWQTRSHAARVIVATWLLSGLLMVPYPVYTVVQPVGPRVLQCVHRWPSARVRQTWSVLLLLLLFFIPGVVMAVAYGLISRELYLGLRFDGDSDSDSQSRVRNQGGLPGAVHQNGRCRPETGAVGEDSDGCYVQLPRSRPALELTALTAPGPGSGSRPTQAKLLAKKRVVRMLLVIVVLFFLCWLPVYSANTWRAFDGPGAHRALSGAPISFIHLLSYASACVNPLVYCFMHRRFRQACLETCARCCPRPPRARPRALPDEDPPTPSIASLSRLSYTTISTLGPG

Question: Which Kd [1] does the source give for gastrin (from UniProt P01350) here?
Answer: 1 nM

B1: AP1153 truncated (49 nt) (ssDNA)
DNA: CATGGTGCAGGTGTGGCTGGGATTCATTTGCCGGTGCTGGTGCGTCCGC
Question: For B1, which Kd [2] is on record?
Answer: 0.206 nM

B2: AP1153 (66 nt) (ssDNA)
DNA: CATGGTGCAGGTGTGGCTGGGATTCATTTGCCGGTGCTGGTGCGTCCGCGGCCGCTAATCCTGTTC
Question: With B2 as the molecule, how does the Kd ([2]; Mfold-predicted folded structure) read?
Answer: 0.0155 nM
